Molecular target: sGFP-foldon
Assay: single-molecule fluorescence brightness analysis; GFP-fused proteins expressed in LTE (2-3 h, 27 °C), diluted about 10 times in buffer A (25 mM HEPES, 50 mM NaCl), 1-100 nanomolar, freely diffusing through a confocal volume, room temperature; also with serial dilution of the plasmid to vary the final expression level

Sequence of sGFP-foldon (P10104 2-487): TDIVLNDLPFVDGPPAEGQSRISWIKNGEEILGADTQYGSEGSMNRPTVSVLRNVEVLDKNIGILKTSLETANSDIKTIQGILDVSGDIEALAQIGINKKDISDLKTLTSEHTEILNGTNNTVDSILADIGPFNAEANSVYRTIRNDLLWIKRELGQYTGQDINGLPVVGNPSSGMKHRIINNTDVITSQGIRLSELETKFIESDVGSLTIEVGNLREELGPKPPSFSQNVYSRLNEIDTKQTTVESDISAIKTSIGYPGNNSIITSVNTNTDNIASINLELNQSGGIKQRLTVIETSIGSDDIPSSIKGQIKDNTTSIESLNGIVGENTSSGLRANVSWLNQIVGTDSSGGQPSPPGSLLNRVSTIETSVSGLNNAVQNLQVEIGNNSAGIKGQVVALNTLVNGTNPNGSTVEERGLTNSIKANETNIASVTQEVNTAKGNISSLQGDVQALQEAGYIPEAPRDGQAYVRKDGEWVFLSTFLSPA

Substance: sGFP-foldon (domain or fragment)
- stoichiometry N: 3
